# Reference: patent publication US20230101046A1, “[…] LYMPHOMA KINASE […] ANTIGEN RECEPTORS AND METHODS OF USE” (The Children's Medical Center Corporation, published 2023)
# Biological target: human ALK receptor (human)
# Assay: apparent KD (KD^app), method not stated
# human ALK receptor (human), sequence (chain, as listed by the source): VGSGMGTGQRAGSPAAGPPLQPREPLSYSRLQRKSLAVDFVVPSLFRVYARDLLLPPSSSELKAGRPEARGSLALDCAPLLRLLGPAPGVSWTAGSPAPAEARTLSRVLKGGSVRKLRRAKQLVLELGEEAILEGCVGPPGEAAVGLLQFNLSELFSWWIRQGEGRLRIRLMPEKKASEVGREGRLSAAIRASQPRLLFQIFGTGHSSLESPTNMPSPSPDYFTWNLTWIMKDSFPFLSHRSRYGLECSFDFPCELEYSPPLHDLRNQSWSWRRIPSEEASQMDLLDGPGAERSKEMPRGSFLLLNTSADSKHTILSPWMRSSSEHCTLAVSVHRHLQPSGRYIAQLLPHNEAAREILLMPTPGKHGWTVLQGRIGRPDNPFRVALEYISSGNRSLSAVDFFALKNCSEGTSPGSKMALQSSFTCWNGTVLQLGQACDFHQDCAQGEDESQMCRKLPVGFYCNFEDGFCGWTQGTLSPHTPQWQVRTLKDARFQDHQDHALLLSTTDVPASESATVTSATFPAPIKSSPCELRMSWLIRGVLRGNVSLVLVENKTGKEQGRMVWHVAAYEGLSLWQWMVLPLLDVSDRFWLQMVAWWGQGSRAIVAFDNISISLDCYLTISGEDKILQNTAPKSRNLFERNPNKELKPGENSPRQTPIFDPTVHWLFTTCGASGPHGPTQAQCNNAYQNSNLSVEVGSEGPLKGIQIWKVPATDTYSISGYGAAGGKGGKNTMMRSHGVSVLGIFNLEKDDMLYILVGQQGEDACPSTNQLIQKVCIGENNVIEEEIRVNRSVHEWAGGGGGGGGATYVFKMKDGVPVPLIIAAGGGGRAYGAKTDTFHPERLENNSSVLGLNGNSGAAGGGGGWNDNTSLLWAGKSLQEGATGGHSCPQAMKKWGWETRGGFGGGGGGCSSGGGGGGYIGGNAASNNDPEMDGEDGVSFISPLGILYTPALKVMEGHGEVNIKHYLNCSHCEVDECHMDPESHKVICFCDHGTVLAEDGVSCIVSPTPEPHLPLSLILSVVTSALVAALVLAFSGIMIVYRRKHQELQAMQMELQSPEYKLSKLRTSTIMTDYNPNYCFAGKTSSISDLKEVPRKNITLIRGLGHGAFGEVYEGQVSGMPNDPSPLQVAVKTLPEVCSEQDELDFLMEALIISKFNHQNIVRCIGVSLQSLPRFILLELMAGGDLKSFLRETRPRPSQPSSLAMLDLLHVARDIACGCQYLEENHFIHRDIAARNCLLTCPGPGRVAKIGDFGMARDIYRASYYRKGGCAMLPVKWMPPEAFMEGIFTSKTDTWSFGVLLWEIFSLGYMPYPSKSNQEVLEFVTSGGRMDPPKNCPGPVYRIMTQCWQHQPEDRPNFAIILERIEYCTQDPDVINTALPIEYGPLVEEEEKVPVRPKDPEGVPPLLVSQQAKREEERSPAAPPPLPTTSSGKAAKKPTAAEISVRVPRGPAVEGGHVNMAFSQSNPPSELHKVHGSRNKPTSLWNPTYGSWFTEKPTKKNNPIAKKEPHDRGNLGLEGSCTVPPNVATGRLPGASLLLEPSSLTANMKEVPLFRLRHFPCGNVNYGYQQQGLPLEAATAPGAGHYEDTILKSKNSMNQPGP
row,Kd [nM],Binder
1,0.4,"ALK Antibody #6 (antibody, V domains shown) VH: DVKLVESGEGLVKPGGSLKLSCAASGFTFSSYAMSWVRQTPEKRLEWVTYISSGGDYIYYADTVKGRFTISRDNARNTLYLQMSSLKSEDTAMYYCTRERIWLRRFFDVWGTGTTVTVSS VL: DIVMTQSQKFMSTSVGDRVSITCKASQNVGTAVAWYQLKPGQSPKLLIYSASNRFTGVPDRFTGSGSGTDFTLTISNMQSEDLADYFCQQYSSYPLTFGSGTKLEIKR"
2,0.5,"ALK Antibody #3 (antibody, V domains shown) VH: QVQLQQSGAELAKPGASVKLSCKASGYTFTNYWMHWVKQRPGQGLEWIGYINPSSGYTKYNQKFKDKATLTADKSSSTAYMQLSSLTYEDSAVYYCARDYYGSSSWFAYWGQGTLVTVSA VL: DIVMTQSQRFMSTSVGDRVSVTCKASQNVGTNVAWYQQKPGQSPKALIYSASYRYSGVPDRFTGSGSGTDFTLTVSNVQSEDLAEYFCQQYNSYPYMYTFGGGTKLEIKR"
3,0.5,"ALK Antibody #7 (antibody, V domains shown) VH: QVQLQQSGAELAKPGASVKLSCKASGYTFTSYWMHWVKQRPGQGLEWIGYINPSSGYTKYNQKFKDKATLTADKSSSTAYMQLSSLTFEDSAVYYCARDYYGSSSWFAYWGQGTLVTVSA VL: DIVMTQSQKFMSTSVGDRVSVTCKASQNVGTNVAWYQQKPGHSPKALIYSASYRYSGVPDRFTGSGSGTDFTLTISNVQSEDLAEYFCQRYNSYPYMFTFGGGTKLEIKR"
4,0.5,"ALK Antibody #5 (antibody, V domains shown) VH: QVQLQQSGAELAKPGASVKLSCKASGYTFTSYWMHWVKQRPGQGLEWIGYIKPSSGYTKYNQKFKDKATLTADKSSSTAYMQLSSLTYEDSAVYYCARDYYGSSSWFAYWGQGTLVTVSA VL: DIVMTQSQRFMSTSVGDRVSVTCKASQNVGTNVAWYQQKPGQSPKALIYSASYRYSGVPDRFTGSGSGTDFTLTISNVQSEDLAEYFCQQYNSYPYMYTFGGGTKLEIKR"
5,0.5,"ALK Antibody #4 (antibody, V domains shown) VH: QVQLQQSGAELVKPGASVKISCKASGYAFSSYWVNWVKQRPGKGLEWIGQIYPGDGDTNYNGKFKGKATLTADKSSSTAYMQLSSLTSEDSAVYFCARSRGYFYGSTYDSWGQGTTLTVSS VL: not shown"
6,0.35,"ALK Antibody #1 (antibody, V domains shown) VH: QVQLQQSGAELVKPGASVKISCKASGYAFSSYWMNWVKQRPGKGLEWIGQIYPGDGDTNYNGKFKGKATLTADKSSSTAYMQLSSLTSEDSAVYFCASYYYGSKAYWGQGTLVTVSA VL: DIQMTQSPASLAASVGETVTITCRASENIYYSLAWYQQKQGKSPQLLIYNANSLEDGVPSRFSGSGSGTQYSMKINSMQPEDTATYFCKQAYDVPFTFGSGTKLEIKR"
